According to paper PMC7160566:

B1: LexA_(DBDwt)-SehB-WT [Salmonella enterica serotype Typhimurium] / itself (parent)
chain: MRTHRQMDATSAKKIVDTFSDAVKTVPLMGEDRNDNEYRRALALVEFLVDHDDLENPLFELLCARISEYEKHAPEFKALNQHLEKTPPGVSVLRTLMDQYGLKAADLANELGSKSNVSNILNGRRALTVNHIKALTQRFKLPADAFIE
B2: LexA_(DBDwt)-SehB-WT [Salmonella enterica serotype Typhimurium] / LexA_(DBDmut)-SehA [Salmonella enterica serotype Typhimurium] (parent)
chain 1: B1 chain
chain 2: MHVISRKPFNEAMLMYPNHELALTELLNVLEKKTFTQPEEMKRYIPSLDNFKYRDKWWVIDVSGNSLRLISYIDFRLHKIFVKHIVSHAEYDKLTAYYRGNKE

Variants of: B1
Test: LexA-based genetic system for homodimerization (sulA-lacZ reporter, E. coli SU101)
Details: with itself; LB broth at 37°C to an OD600 nm of 1.0; 1 mM IPTG; parent: 130; read off a plot
Work on MRTHRQMDATSAKKIVDTFSDAVKTVPLMGEDRNDNEYRRALALVEFLVDHDDLENPLFELLCARISEYEKHAPEFKALNQHLEKTPPGVSVLRTLMDQYGLKAADLANELGSKSNVSNILNGRRAATVNHIKALTQRFKLPADAFIE [chain 1 L127A] yielded a response of 170 U/mg. MRTHRQMDATSAKKIVDTFSDAVKTVPLMGEDRNDNEYRRALALVEFLVDHDDLENPLFELLCARISEYEKHAPEFKALNQHLEKTPPGVSVLRTLMDQYGLKAADLANELGAKSNVSNILNGRRALTVNHIKALTQRFKLPADAFIE [chain 1 S113A] was tested, and the response was 110 U/mg. MRTHRQMDATSAKKIVDTFSDAVKTVPLMGEDRNDNEYRRALALVEFLVDHDDLENPLFELLCARISEYEKHAPEFKALNQHLEKTPPGVSVLRTLMDQYGLKAADLANELGSKSNVSNILNGRRALTVNHIKALTQRFKLPADAAIE [chain 1 F146A] was tested, and the response was 110 U/mg. Work on MRTHRQMDATSAKKIVDTFSDAVKTVPLMGEDRNDNEYRRALALVEFAVDHDDLENPLFELLCARISEYEKHAPEFKALNQHLEKTPPGVSVLRTLMDQYGLKAADLANELGSKSNVSNILNGRRALTVNHIKALTQRFKLPADAFIE [chain 1 L48A] yielded a response of 770 U/mg. Work on MRTHRQMDATSAKKIVDTFSDAVKTVPLMGEDRNDNEARRALALVEFLVDHDDLENPLFELLCARISEYEKHAPEFKALNQHLEKTPPGVSVLRTLMDQYGLKAADLANELGSKSNVSNILNGRRALTVNHIKALTQRFKLPADAFIE [chain 1 Y38A] yielded a response of 600 U/mg. In the case of MRTHRQMDATSAKKIVDTFSDAVKTVPLMGEDRNDNEYRRALALVEFLVDHDDLENPLFELLCARISEYEKHAPEFKALNQHLEKTPPGVSVLRTLMDQYGLKAADLANELGSKSNVSNILNGRRALTVNHIKAATQRFKLPADAFIE [chain 1 L135A], the response is reported as 130 U/mg. In the case of MRTHRQMDATSAKKIVDTFSDAVKTVPLMGEDRNDNEYRRALALVEFLVDHDDLENPAFELLCARISEYEKHAPEFKALNQHLEKTPPGVSVLRTLMDQYGLKAADLANELGSKSNVSNILNGRRALTVNHIKALTQRFKLPADAFIE [chain 1 L58A], the response is reported as 650 U/mg. MRTHRQMDATSAKKIVDTFSDAVKTVPLMGEDRNDNEYRRALALVEFLVDHDDLENPLFELLCARASEYEKHAPEFKALNQHLEKTPPGVSVLRTLMDQYGLKAADLANELGSKSNVSNILNGRRALTVNHIKALTQRFKLPADAFIE [chain 1 I66A] gave a response of 680 U/mg.

Variants of: B2
Test: LexA-based genetic system for heterodimerization (sulA-lacZ reporter, E. coli SU202)
Details: with LexA_(DBDmut)-SehA [Salmonella enterica serotype Typhimurium]; LB broth at 37°C to an OD600 nm of 1.0; 1 mM IPTG; parent: 750; read off a plot
chain 1 MRTHRQMDATSAKKIVDTFSDAVKTVPLMGEDRNDNEARRALALVEFLVDHDDLENPLFELLCARISEYEKHAPEFKALNQHLEKTPPGVSVLRTLMDQYGLKAADLANELGSKSNVSNILNGRRALTVNHIKALTQRFKLPADAFIE [chain 1 Y38A] was tested, and the response was 1100 U/mg. chain 1 MRTHRQMDATSAKKIVDTFSDAVKTVPLMGEDRNDNEYRRALALVEFLVDHDDLENPLFELLCARISEYEKHAPEFKALNQHLEKTPPGVSVLRTLMDQYGLKAADLANELGSKSNVSNILNGRRALTVNHIKAATQRFKLPADAFIE [chain 1 L135A] was tested, and the response was 720 U/mg. In the case of chain 1 MRTHRQMDATSAKKIVDTFSDAVKTVPLMGEDRNDNEYRRALALVEFLVDHDDLENPLFELLCARASEYEKHAPEFKALNQHLEKTPPGVSVLRTLMDQYGLKAADLANELGSKSNVSNILNGRRALTVNHIKALTQRFKLPADAFIE [chain 1 I66A], the response is reported as 630 U/mg. In the case of chain 1 MRTHRQMDATSAKKIVDTFSDAVKTVPLMGEDRNDNEYRRALALVEFLVDHDDLENPLFELLCARISEYEKHAPEFKALNQHLEKTPPGVSVLRTLMDQYGLKAADLANELGAKSNVSNILNGRRALTVNHIKALTQRFKLPADAFIE [chain 1 S113A], the response is reported as 760 U/mg. chain 1 MRTHRQMDATSAKKIVDTFSDAVKTVPLMGEDRNDNEYRRALALVEFLVDHDDLENPAFELLCARISEYEKHAPEFKALNQHLEKTPPGVSVLRTLMDQYGLKAADLANELGSKSNVSNILNGRRALTVNHIKALTQRFKLPADAFIE [chain 1 L58A] was tested, and the response was 820 U/mg. Work on chain 1 MRTHRQMDATSAKKIVDTFSDAVKTVPLMGEDRNDNEYRRALALVEFLVDHDDLENPLFELLCARISEYEKHAPEFKALNQHLEKTPPGVSVLRTLMDQYGLKAADLANELGSKSNVSNILNGRRALTVNHIKALTQRFKLPADAAIE [chain 1 F146A] yielded a response of 780 U/mg. chain 1 MRTHRQMDATSAKKIVDTFSDAVKTVPLMGEDRNDNEYRRALALVEFLVDHDDLENPLFELLCARISEYEKHAPEFKALNQHLEKTPPGVSVLRTLMDQYGLKAADLANELGSKSNVSNILNGRRAATVNHIKALTQRFKLPADAFIE [chain 1 L127A] showed a response of 770 U/mg. Variant chain 1 MRTHRQMDATSAKKIVDTFSDAVKTVPLMGEDRNDNEYRRALALVEFAVDHDDLENPLFELLCARISEYEKHAPEFKALNQHLEKTPPGVSVLRTLMDQYGLKAADLANELGSKSNVSNILNGRRALTVNHIKALTQRFKLPADAFIE [chain 1 L48A] has a response of 940 U/mg.
